From US20190336496A1, “SELECTIVE BCL-2 INHIBITORS IN COMBINATION WITH AN ANTI-PD-1 OR AN ANTI-PD-L1 ANTIBODY FOR THE TREATMENT OF CANCERS” (AbbVie Inc., priority 2018, published 2019)
Where “and” joins values, the source holds several entries; their conditions need not be identical. Equal values may be shown once.

System: CT26 tumors
Assay: CT26 mouse colon carcinoma syngeneic model
Assay type: in vivo
Details: CT26; groups of 10 mice; CR = tumor volume ≤25 mm^3 over at least 3 successive measurements
Method: BALB/c, C57BL/6, CB6F1 (C57BL/6 bred with BALB/c) and SCID mice were obtained from Charles River (Wilmington, Mass.).
EMT6, mouse mammary carcinoma and CT26, mouse colon carcinoma, cell lines were obtained from ATCC (Manassas, Va.).
Compound (I),venetoclax, was formulated in 10% ethanol+30% PEG 400+60% Phosal® 50PG. Venetoclax was administered orally once a day for 14 days at 50 mg/kg/day.
1×10^5 CT26, EMT6 or MC38 cells were subcutaneously injected with Matrigel into the flanks of BALB/c, CB6F1 or C57BL/6 mice, respectively. Seven days later, mice were randomized to treatment groups of vehicle, venetoclax, anti-PD-1/PD-L1 or the combination of venetoclax and anti-PD-1/PD-L1. Tumor volume was determined via measurements of the length (L) and width (W) of the tumor with electronic calipers and the volume was calculated according to the following equation: V=L×W2/2 using Study Director Version 2.1.11 (Studylog Systems Inc., South San Francisco). Complete response (CR) was defined as reduction in tumor volume to ≤25 mm^3 over at least 3 successive measurements.

B1: anti mu PD1 (17D2 murinized, VH2xVL1x)[mu IgG2a/k] DANA: Mouse anti-PD-1 antibody, heavy chain SEQ ID NO: 3, light chain SEQ ID NO: 4 (antibody)
heavy: QVTLKESGPGILQSSQTLSLTCTFSGFSLSTYGMGVGWIRQPSGKGLEWLTNIWWDDDKYYNSSLKNRLTVSKDTANNQVFLKFTSVDIADTATYYCGRMEWGGSFDYWGQGIMVTVSSAKTTAPSVYPLAPVCGDTTGSSVTLGCLVKGYFPEPVTLTWNSGSLSSGVHTFPAVLQSDLYTLSSSVTVTSSTWPSQSITCNVAHPASSTKVDKKIEPRGPTIKPCPPCKCPAPNLLGGPSVFIFPPKIKDVLMISLSPIVTCVVVAVSEDDPDVQISWFVNNVEVHTAQTQTHREDYASTLRVVSALPIQHQDWMSGKEFKCKVNNKDLPAPIERTISKPKGSVRAPQVYVLPPPEEEMTKKQVTLTCMVTDFMPEDIYVEWTNNGKTELNYKNTEPVLDSDGSYFMYSKLRVEKKNWVERNSYSCSVVHEGLHNHHTTKSFSRTPGK
light: DIVMTQTPVSLSVSLGGQVSISCRSSQSLEHRNGITFLSWYLQKPGQSPQLLIYKVSNRFSGISDRFSGRGSGTDFVLQINRVEPDDLGVYYCGQGTHYPLTFGSGTKLEIKRADAAPTVSIFPPSSEQLTSGGASVVCFLNNFYPKDINVKWKIDGSERQNGVLNSWTDQDSKDSTYSMSSTLTLTKDEYERHNSYTCEATHKTSTSPIVKSFNRNEC
complete responses (CR): did not lead to any complete responses and 0/10
